No end group written: not given here.
T1: human extracellular ErbB4/Fc chimera (human, UniProt Q15303 26-651)
T1 construct: ErbB4, human, extracellular part; also called Fc-conjugated ErbB4; source: bought: R&D Systems (carrier free)
T1 sequence (looked up): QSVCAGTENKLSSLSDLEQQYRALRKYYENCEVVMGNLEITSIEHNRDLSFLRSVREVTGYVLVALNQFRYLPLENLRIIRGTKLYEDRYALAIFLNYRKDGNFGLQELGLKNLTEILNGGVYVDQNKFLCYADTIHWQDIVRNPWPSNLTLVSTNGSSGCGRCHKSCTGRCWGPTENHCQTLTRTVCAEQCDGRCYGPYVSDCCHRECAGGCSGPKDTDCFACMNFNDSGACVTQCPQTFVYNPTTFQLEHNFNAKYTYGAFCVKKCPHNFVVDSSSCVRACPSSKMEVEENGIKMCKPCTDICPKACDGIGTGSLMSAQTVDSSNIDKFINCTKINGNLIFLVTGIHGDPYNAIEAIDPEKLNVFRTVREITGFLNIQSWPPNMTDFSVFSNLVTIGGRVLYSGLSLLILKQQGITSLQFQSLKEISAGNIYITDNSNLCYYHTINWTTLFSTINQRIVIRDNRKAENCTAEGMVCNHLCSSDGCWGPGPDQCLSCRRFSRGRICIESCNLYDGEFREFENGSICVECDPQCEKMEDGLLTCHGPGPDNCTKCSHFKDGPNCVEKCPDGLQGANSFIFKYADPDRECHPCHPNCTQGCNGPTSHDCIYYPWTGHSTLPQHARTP

B1: H3 peptide (S100A4-derived), tetramer on a lysine backbone (peptide)
peptide: KELLTRELPSFLGKRT
modifications: also: tetramer: four monomers coupled to a lysine backbone
notes: motif of S100A4 with high homology within the S100 family; Dendrimeric tetramer: four copies of the peptide on a lysine backbone; source: synthetic peptide (Schafer-N, Denmark)
B2: amphiregulin (ligand, UniProt P15514 101-187, looked up)
chain: SVRVEQVVKPPQNKTESENTSDKPKRKKKGGKNGKNRRNRKKKNPCNAEFQNFCIHGECKYIEHLEAVTCKCQQEYFGERCGEKSMK
notes: amphiregulin (AR), soluble, ligand of EGFR; also called AR; source: bought: R&D Systems (carrier free)
B3: Recombinant human S100A4 (natural protein)
chain: not shown
notes: S100A4 protein, human, recombinant
B4: H6 peptide (S100A4-derived), tetramer on a lysine backbone (peptide)
peptide: NEFFEGFPDKQPRKK
modifications: also: tetramer: four monomers coupled to a lysine backbone
notes: low-homology ('unique') motif in the C-terminal of S100A4; Dendrimeric tetramer: four copies of the peptide on a lysine backbone; source: synthetic peptide (Schafer-N, Denmark)
B5: Sulfo-SBED-S100A4 (natural protein)
chain: not shown
modifications: derivatized with sulfo-SBED (biotin label-transfer cross-linker); sites not stated
notes: S100A4 protein, human, recombinant; The same protein as m1, carrying the sulfo-SBED label for the label transfer cross-linking; also called sulfo-SBED-conjugated S100A4

Tests used:
Details in all cases: both partners purified
[1] = biological target: T2, human extracellular ErbB3/Fc chimera (human, UniProt P21860 20-643); test: SPR; BIAcore 2000; 2000 RU of ErbB/Fc chimera immobilized covalently on a CM4 chip; S100A4 or peptides as analyte; apparent affinities calculated from binding kinetics
T2 construct: ErbB3, human, extracellular part; also called Fc-conjugated ErbB3; source: bought: R&D Systems (carrier free)
T2 sequence (P21860 20-643, change not shown): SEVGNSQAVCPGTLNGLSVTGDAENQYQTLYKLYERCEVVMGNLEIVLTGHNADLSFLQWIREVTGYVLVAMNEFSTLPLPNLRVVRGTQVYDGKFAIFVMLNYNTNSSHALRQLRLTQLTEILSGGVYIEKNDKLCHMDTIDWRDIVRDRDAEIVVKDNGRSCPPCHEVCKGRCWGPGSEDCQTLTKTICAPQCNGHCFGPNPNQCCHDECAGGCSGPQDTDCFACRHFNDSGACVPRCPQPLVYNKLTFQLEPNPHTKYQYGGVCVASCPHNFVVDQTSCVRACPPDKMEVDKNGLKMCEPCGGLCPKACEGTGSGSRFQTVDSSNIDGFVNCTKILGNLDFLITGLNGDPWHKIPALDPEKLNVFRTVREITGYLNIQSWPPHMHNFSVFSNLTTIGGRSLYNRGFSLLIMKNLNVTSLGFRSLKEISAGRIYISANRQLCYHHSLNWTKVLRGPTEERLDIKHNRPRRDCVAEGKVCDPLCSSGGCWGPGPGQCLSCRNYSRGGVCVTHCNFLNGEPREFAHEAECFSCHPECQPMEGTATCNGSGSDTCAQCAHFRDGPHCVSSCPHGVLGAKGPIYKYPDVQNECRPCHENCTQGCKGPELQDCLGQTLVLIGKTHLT

[2] = biological target: T3, human extracellular ErbB1/Fc chimera (human, UniProt P00533 25-645); test: as above
T3 construct: ErbB1 (EGFR), human, extracellular part; also called EGFR; EGFR-Fc; source: bought: R&D Systems (carrier free)

[3] = biological target: T1, human extracellular ErbB4/Fc chimera; test: as above
[4] = biological target: B3; test: SPR; BIAcore 2000; 2000 RU of recombinant human S100A4 immobilized covalently on a CM4 chip; soluble AR or NRG as analyte
[5] = biological target: T2, human extracellular ErbB3/Fc chimera; test: cross-linking; label transfer in solution: 100 nM Sulfo-SBED-conjugated protein with 50 nM Fc fusion or mouse IgG, 30 min in the dark at RT in TBS-Ca2+, UV 302 nm 5 min, precipitated with Protein A Dynabeads, reduced, biotin detected with streptavidin-HRP
[6] = biological target: T3, human extracellular ErbB1/Fc chimera; test: as above
[7] = biological target: T1, human extracellular ErbB4/Fc chimera; test: as above

Binder | Kd [1] [nM] | Kd [2] [nM] | Kd [3] [nM] | Kd [4] [nM] | binding result [5] | binding result [6] | binding result [7]
B1 | 203 ± 46.7 | 107 ± 23.1 | 199 ± 53.1 |  |  |  | 
B2 |  |  |  | 71.3 ± 12.3 |  |  | 
B3 | 58 ± 30 | 21.4 ± 5.5 | 66 ± 26.9 |  |  |  | 
B4 | 62.3 ± 18.8 | 802 ± 114 | 217 ± 19.9 |  |  |  | 
B5 |  |  |  |  | binds | binds | binds

— publication PMC6071530, “The S100A4 Protein Signals through the ErbB4 Receptor to Promote Neuronal Survival” (Theranostics, 2018)
